Several values for one entry are separate records, joined by “and”; a condition that tells them apart may be missing. Equal values may be shown once.
Conditions: Mus musculus, pH 7.4, 20 °C, Tris-HCl 20 mM, whole UniProt chain shown

B1: Adenosine deaminase wild type, P03958 (protein)
chain: MAQTPAFNKPKVELHVHLDGAIKPETILYFGKKRGIALPADTVEELRNIIGMDKPLSLPGFLAKFDYYMPVIAGCREAIKRIAYEFVEMKAKEGVVYVEVRYSPHLLANSKVDPMPWNQTEGDVTPDDVVDLVNQGLQEGEQAFGIKVRSILCCMRHQPSWSLEVLELCKKYNQKTVVAMDLAGDETIEGSSLFPGHVEAYEGAVKNGIHRTVHAGEVGSPEVVREAVDILKTERVGHGYHTIEDEALYNRLLKENMHFEVCPWSSYLTGAWDPKTTHAVVRFKNDKANYSLNTDDPLIFKSTLDTDYQMTKKDMGFTEEEFKRLNINAAKSSFLPEEEKKELLERLYREYQ
GdnHCl, Fluorescence
  denaturant m value: 2.08 kcal/mol/M
  denaturant midpoint (higher = more stable): 1.91 M
  unfolding free energy: 3.98 kcal/mol
Urea, CD
  unfolding free energy: 5.78 kcal/mol and 7.39 kcal/mol
Urea, Enzyme assay
  denaturant midpoint (higher = more stable): 0.68 M
Urea, Fluorescence
  denaturant m value: 0.79 kcal/mol/M
  denaturant midpoint (higher = more stable): 6.19 M
  unfolding free energy: 4.89 kcal/mol

From FireProtDB (doi:10.1016/j.jmb.2004.10.057)
